Measurements reported in the supplement of paper PMC10567573.

B1: PRPH (parent)
chain: RTFGPPPSLSPGAFSYSSSSRFSS
B2: ADAMTS4 (parent)
chain: SFRKFRYGYNNVVTIPAGATHILV

Variants of: B1
Test: protein stability index of a GFP-peptide fusion (GPS, HEK-293T) (PSI 1-6); higher = more stable
Details: c terminus: a fixed tail appended
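Note: lentivirally expressed fusions sorted by FACS into six bins by GFP to DsRed ratio, PSI derived from sequencing read proportions per bin multiplied by bin number.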

Protein stability index of substitutions, site by site:
R1: F 2.52, Q 3.62, D 3.29, A 3.18, W 2.81, Y 2.4, S 3.01, C 2.59, V 1.97, N 3.7, M 2.29, I 2.41, T 2.63, G 3.25, H 3.24, E 3.09, K 2.74
P11: F 2.11, E 4, T 2.94, M 2.52, G 2.88, Q 3.38, C 1.64, R 3.63, V 2.69, K 2.44, Y 2.41, W 2.23, H 2.74, S 3.04, L 2.59, I 2.46, N 3.12, D 3.45, A 3.11
P6: K 3.25, S 3.37, C 2.09, M 2.8, W 2.01, Q 3.03, E 2.83, R 3.02, G 3.02, T 2.71, A 2.76, N 3.1, D 2.86, L 2.95, V 3.05, I 2.9, Y 2.11, F 2.15, H 2.79
G12: F 2.16, D 3.24, E 3.27, C 1.96
S10: M 3.61, K 3.06, D 2.76, R 3.15, N 3.15, W 2.9, L 3.24, H 3.13, V 2.78, Y 2.36, E 3.23, C 3.45, F 2.67, Q 3.34, G 3.46, I 3.19
T2: L 2.43, S 3.73, C 2.02, Q 2.92, F 2.46, K 2.49, H 3.17, V 2.23, P 3.08, Y 2.31, D 3.21, N 2.92, G 2.89, A 2.95, M 2.52, I 2.97
F3: A 3.33, L 4.11, Y 3.16, E 3.72, T 3.54, S 3.6, W 3.19, R 3.41, C 2.82, V 3.31, I 3.46, D 4.09, M 3.75, K 3.38, N 3.38, G 3.13
G4: H 3.2, I 2.55, F 3.06, V 2.37, C 2.9, W 2.22, D 3.36, K 2.26, N 3.12, L 2.42, M 3.08, Q 3.26, R 3.1, E 3.43, S 3.21
P7: Y 2.12, Q 3.13, I 2.53, S 3.26, E 2.89, A 3.22, C 1.6, M 2.77, F 2.34, T 3.56, R 2.93, N 3.02, V 2.86, G 2.92, K 3.71, H 3.15, W 2.08, L 2.71, D 3.45
L9: Y 2.94, Q 3.76, D 3.61, S 3.8, E 3.44, C 2.71, V 3.31, A 3.52, G 3.64, R 4.05, W 3.09, F 3.39, N 3.42, H 3.54, T 3.7, K 3.8
P5: Q 2.6, S 2.99, G 2.84, I 2.5, C 2.64, D 3.35, K 2.99, Y 2.65, F 2.61, E 3.23, M 2.6, N 3.55, W 2.21, R 2.71, A 2.76, H 2.81, L 2.07, T 3.29, V 2.89
S8: L 3.14, D 3.04, G 2.68, R 3.83, W 2.75, I 2.78, K 2.58, C 3.04, E 3.49, N 3.5, V 2.59, M 2.93

Variants of: B2
Test: as above
Details: c terminus: a fixed tail appended

Protein stability index, by site and new letter:
I22: R 1.88, Q 2.31, P 2.59, K 2.37, E 2.53, Y 1.92, T 1.97, S 2.36, C 2.42, D 2.24, L 2.51, A 1.74, G 1.93, V 1.79, F 2.58, N 1.83, W 1.83, M 1.9, H 1.8
P16: Y 2.49
V24: I 2, F 3.25, H 1.73, W 1.94, R 1.34, L 2.35, M 2.12, K 1.7, E 2.34, A 1.52, D 1.93, Y 2.57, G 1.81, Q 1.75, T 1.44, C 2.39, P 1.64, N 1.66, S 1.68
L23: V 2, W 2.15, S 2.52, I 3.28, R 1.84, K 2, C 2.19, M 2.43, Q 1.37, N 1.75, E 1.32, F 2.76, P 2.29, A 2.4, T 3.08, H 2.91, D 1.78, G 2.1, Y 2.41
T20: H 1.63, P 3.21, F 3.2, M 2.51, Y 1.69, K 2.24, I 2.77, Q 2.19, A 2.32, L 2.9, N 1.85, G 1.49, D 1.54, W 2.38, C 2.86, E 2.56, V 2.55
G18: N 1.27, D 2.71, Y 1.64, C 1.73, A 1.72, P 2.06, F 2.3, W 1.9, H 1.71, E 2.63, K 2.41, I 1.62, R 1.85, M 1.54, S 2.58, Q 2.88, L 2, T 2.71, V 1.63
A19: W 2.72, D 3.22, F 3.91, H 1.96, R 2.67, E 3.97, C 2.13, N 2.17, Q 1.88, Y 3.44, T 1.36, P 2.17, V 1.84, G 1.22, K 3, L 3.23
H21: K 2.59, F 3.18, I 2.4, E 3.28, G 2.48, T 3.43, P 1.28, A 1.3, R 2.32, N 2.65, Q 2.85, C 2.43, D 1.66, S 2.3, Y 3.3, M 2.12, V 2.02
A17: V 1.24, S 1.78, K 1.57, E 1.61, F 1.96, M 1.51, R 2, Q 1.33, L 2.31, T 1.97, W 2.46, C 2.36, H 1.78, I 1.86, P 1.98, N 1.78, D 1.64, G 1.95, Y 1.6
